Laboratory results taken from the Human Domainome abundance scans (Beltran et al. 2025).
± gives the uncertainty stated by the source.

B1: Zinc finger homeobox protein 3, residues 2643 to 2698; numbered along this chain, Q15911 (parent)
chain: RLRTTITPEQLEILYQKYLLDSNPTRKMLDHIAHEVGLKKRVVQVWFQNTRARERK

Variants of: B1
Assay: abundance fitness (aPCA) (normalised: wild type 0, dead -1); higher = more abundant; growth selection in yeast, the domain comes from the species named
Details: Homo sapiens

Row | Variant | abundance fitness
1 | R53P | -0.266 ± 0.14
2 | R53L | -0.006 ± 0.08
3 | R53A | 0.092 ± 0.076
4 | R53C | 0.052 ± 0.12
5 | R53V | 0.013 ± 0.076
6 | K27G | 0.077 ± 0.074
7 | K27T | 0.036 ± 0.093
8 | I32H | -0.527 ± 0.26
9 | I32N | -1.25 ± 0.25
10 | I32F | -0.108 ± 0.14
11 | I32C | -0.749 ± 0.17
12 | I32T | -0.274 ± 0.1
13 | I32Y | -0.378 ± 0.2
14 | S22Y | -0.624 ± 0.23
15 | S22G | -0.034 ± 0.07
16 | S22R | -0.526 ± 0.082
17 | E54P | -0.38 ± 0.076
18 | E54D | 0.014 ± 0.097
19 | E54S | -0.497 ± 0.074
20 | E54T | -0.361 ± 0.077
21 | E54Q | -0.495 ± 0.11
22 | L2A | -0.009 ± 0.12
23 | L2R | -0.262 ± 0.1

Row | Variant | abundance fitness
24 | L2M | -0.221 ± 0.17
25 | L2E | 0.17 ± 0.15
26 | L20G | -0.049 ± 0.086
27 | L20M | 0.093 ± 0.11
28 | L20N | -0.27 ± 0.14
29 | L14H | -0.793 ± 0.26
30 | L14C | -0.886 ± 0.18
31 | L14R | -0.847 ± 0.089
32 | L14W | -0.758 ± 0.11
33 | D21M | -0.22 ± 0.14
34 | D21Q | -0.255 ± 0.17
35 | D21E | -0.008 ± 0.14
36 | D21K | -0.924 ± 0.2
37 | D21P | -0.604 ± 0.15
38 | D21L | -0.553 ± 0.11
39 | Q10S | -0.48 ± 0.069
40 | Q10F | -0.959 ± 0.095
41 | Q10K | -0.432 ± 0.1
42 | Q10P | -0.717 ± 0.081
43 | Q10R | -0.755 ± 0.083
44 | Y18K | -0.662 ± 0.22
45 | R51A | 0.13 ± 0.076
46 | R51S | 0.024 ± 0.093

Row | Variant | abundance fitness
47 | P24Y | -0.548 ± 0.19
48 | P24H | -0.687 ± 0.19
49 | P24N | -0.623 ± 0.17
50 | P24A | -0.82 ± 0.096
51 | P24R | -0.828 ± 0.082
52 | L19V | -0.12 ± 0.11
53 | L19Q | -0.233 ± 0.13
54 | L19G | -0.175 ± 0.078
55 | L19E | -0.254 ± 0.14
56 | T50L | -0.177 ± 0.09
57 | T50F | -0.322 ± 0.19
58 | T50D | -0.731 ± 0.15
59 | T50Q | 0.243 ± 0.12
60 | L29N | -0.724 ± 0.16
61 | L29T | -0.273 ± 0.097
62 | L29V | -0.043 ± 0.082
63 | E35Q | -0.016 ± 0.1
64 | E35C | -0.351 ± 0.12
65 | E35G | -0.487 ± 0.092
66 | V36G | -0.732 ± 0.1
67 | V36Y | -0.896 ± 0.19
68 | I6Q | -0.705 ± 0.12
69 | I6K | -0.392 ± 0.1

Row | Variant | abundance fitness
70 | H34A | -0.123 ± 0.11
71 | H34P | -0.739 ± 0.12
72 | H34G | 0.062 ± 0.093
73 | H34L | -0.225 ± 0.084
74 | H31G | 0.198 ± 0.075
75 | H31V | 0.134 ± 0.08
76 | H31C | 0.096 ± 0.13
77 | Y15K | 0.051 ± 0.12
78 | T4L | -0.335 ± 0.11
79 | T4A | -0.193 ± 0.1
80 | T4F | -0.378 ± 0.24
81 | T4S | -0.144 ± 0.13
82 | I13A | -0.079 ± 0.098
83 | I13S | -0.184 ± 0.084
84 | K17T | -0.59 ± 0.16
85 | G37W | -0.92 ± 0.11
86 | R26F | 0.029 ± 0.1
87 | A33D | -0.866 ± 0.11
88 | A33N | -0.906 ± 0.11
89 | Q48L | -0.268 ± 0.11
90 | Q48T | 0.028 ± 0.15
91 | R3W | 0.241 ± 0.1
92 | R3L | 0.186 ± 0.095

Row | Variant | abundance fitness
93 | N49M | -0.331 ± 0.15
94 | N49L | -0.334 ± 0.099
95 | N49P | -0.778 ± 0.17
96 | N49I | -0.267 ± 0.17
97 | N49F | -0.531 ± 0.18
98 | L11I | -0.224 ± 0.19
99 | L11Q | -0.133 ± 0.11
100 | L11C | -0.648 ± 0.14
101 | P8K | -0.352 ± 0.23
102 | P8Q | -0.401 ± 0.21
103 | P8R | 0.196 ± 0.089
104 | A52P | -0.598 ± 0.14
105 | A52Q | 0.21 ± 0.11
106 | A52W | -0.335 ± 0.097
107 | A52F | -0.428 ± 0.2
108 | A52M | -0.138 ± 0.11
109 | A52S | -0.021 ± 0.083
110 | R41Y | -0.129 ± 0.24
111 | R41M | -0.078 ± 0.18
112 | R41K | 0.297 ± 0.18
113 | R41D | 0.773 ± 0.18
114 | V45G | -0.213 ± 0.076
115 | V45A | -0.365 ± 0.096

Row | Variant | abundance fitness
116 | Q44C | -0.193 ± 0.17
117 | Q44T | -0.209 ± 0.098
118 | V42T | 0.037 ± 0.11
119 | L38H | -0.737 ± 0.19
120 | L38G | -0.972 ± 0.092
121 | L38R | -0.846 ± 0.086
122 | L38E | -0.869 ± 0.12
123 | R1M | 0.23 ± 0.35
124 | D30M | -0.314 ± 0.13
125 | D30K | -0.214 ± 0.13
126 | D30V | -0.223 ± 0.094
127 | E12Y | -0.454 ± 0.15
128 | R55N | 0.462 ± 0.17
129 | N23P | -0.965 ± 0.22
130 | N23V | -0.37 ± 0.098
131 | N23Y | -0.1 ± 0.27
132 | K56S | 0.262 ± 0.14
133 | K56W | -0.314 ± 0.28
134 | K56R | -0.35 ± 0.17
135 | K56A | 0.034 ± 0.33
136 | K40M | 0.192 ± 0.12
137 | T25F | -0.605 ± 0.23
138 | T25S | -0.267 ± 0.089

Row | Variant | abundance fitness
139 | T25A | -0.243 ± 0.087
140 | T25V | -0.349 ± 0.082
141 | F47R | -0.757 ± 0.095
142 | F47Y | -0.388 ± 0.22
143 | F47H | -1.09 ± 0.32
144 | K39E | 0.518 ± 0.13
145 | K39R | -0.012 ± 0.074
146 | K39L | -0.324 ± 0.1
147 | K39M | 0.13 ± 0.11
148 | M28I | -0.557 ± 0.43
149 | T7L | -0.212 ± 0.083
150 | T7N | -0.338 ± 0.2
151 | T7C | -0.244 ± 0.12
152 | T7A | 0.08 ± 0.084
153 | T5M | 0.286 ± 0.15
154 | T5E | 0.445 ± 0.15
155 | T5Y | -0.319 ± 0.24
156 | T5Q | 0.17 ± 0.15
